{"source": "patent US12377130B2", "about": "“Pharmaceutical composition comprising CCN5 as active ingredient, for preventing or treating retinal diseases” (OLIVES BIOTHERAPEUTICS INC., priority 2018, dated 2025)", "assay_type_in_all_cases": "cell-based, human", "key": {"ARPE-19 cells [1]": {"test_system": "ARPE-19 cells", "test": "Anti-VEGF drug-induced fibrotic deformation of ARPE-19 cells, simultaneous treatment with CCN5 protein", "conditions": "for expression of CCN2 on treatment with anti-VEGF drug / expression of CCN5 on treatment with anti-VEGF drug: bevacizumab 0.25 mg/ml, ranibizumab 0.125 mg/ml, aflibercept 0.5 mg/ml"}, "ARPE-19 cells [2]": {"test_system": "ARPE-19 cells", "test": "Restoration of already formed TGF-β-induced fibrotic deformation of ARPE-19 cells", "conditions": "then agent (restoration); for expression of mesenchymal (α-SMA, vimentin, fibronectin) and epithelial (ZO-1, occludin) marker proteins (Western blotting): TGF-β 2 days, FIGS. 6c, 8b, 12b, 13b", "protocol": "The cultured cells were divided into the following two groups and subjected to drug treatment: one group in which induction of differentiation of retinal pigment epithelial cells into mesenchymal cells was suppressed; and the other group in which retinal pigment epithelial cells that had been induced to differentiate into mesenchymal cells were caused to return to normal retinal pigment epithelial cells. The ARPE-19 cells were grown in serum-free medium for 24 hours. Then, the cells were treated with AdCCN5 at 50 multiplicity of infection (MOI) followed by 10 ng/ml of TGF-β2 (PeproTech Korea, Korea), or treated with TGF-β2 followed by AdCCN5.\nFor in vitro experiments, the cultured ARPE-19 cells were washed with phosphate buffered saline (PBS), and suspended with a mixed solution of cold RIPA buffer (1% NP-40, 50 mM Tris-HCl [pH 7.4], 150 mM NaCl, and 10 mM NaF) and a protease inhibitor cocktail (Roche, Germany). The cell suspension was subjected to treatment with an ultrasonic generator for 5 minutes at an amplitude of 5% with a cycle of 2 seconds on/1 second off.\nCells that had been grown by being seeded in a 12-well culture plate, each well containing a coverslip, were fixed with 4% formaldehyde and treated with 0.2% Triton X-100 for 10 minutes. The cells were blocked with a diluted solution of 5% bovine serum albumin in PBS, and incubated with anti-ZO-1 and anti-α-SMA antibodies overnight at 4° C. For secondary antibodies, the cells were incubated for 1 hour at room temperature with FITC- or Alexa Fluor 594-conjugated secondary antibodies, TEXAS RED®-conjugated phalloidin (Invitrogen, USA) for f-actin staining, and Hoechst 33342 (Invitrogen, USA) for nuclear staining. The results were observed using an epifluorescence microscope (Zeiss, Germany). For retinal flat-mount experiments, the eyes were enucleated from the mice, and each eye was fixed in 4% formaldehyde for 24 hours. […] Observation was performed under a fluorescence microscope. […]"}, "ARPE-19 cells [3]": {"test_system": "ARPE-19 cells", "test": "Prevention of TGF-β-induced fibrotic deformation of ARPE-19 cells (microscopy, Western blotting, qPCR, immunofluorescence)", "conditions": "FIG. 3", "protocol": "A retinal pigment epithelial cell line (ARPE-19; ATCC, USA) was cultured in a 5% CO2 incubator at 37° C. using Dulbecco's modified Eagle's medium and Ham's F12 Nutrient Mixture medium (DMEM/F12; Welgene, Korea), containing 1% antibiotics (Gibco, USA) and 10% fetal bovine serum (FBS; HyClone, USA). The medium was replaced with fresh medium every other day. When the cells were cultured to a certain extent in a culture plate, these cells were subcultured using 0.25% trypsin/0.02% EDTA (Gibco, USA). […]\nCells that had been grown by being seeded in a 12-well culture plate, each well containing a coverslip, were fixed with 4% formaldehyde and treated with 0.2% Triton X-100 for 10 minutes. […] Observation was performed under a fluorescence microscope.\nRNA was extracted using TRIZOL™ (Invitrogen, USA) reagent. cDNA was synthesized using a reverse transcription kit (Promega, USA), and real-time polymerase chain reaction was performed using SYBR® green (TAKARA, Japan). The level of RNA was analyzed by analyzing the amplification reaction curve, and this analysis was performed in triplicate or quadruplicate. The relative expression level of genes was quantified by normalization to 18s rRNA. […]"}, "ARPE-19 cells [4]": {"test_system": "ARPE-19 cells", "test": "Bevacizumab-induced fibrotic deformation of ARPE-19 cells and prevention by AdCCN5", "conditions": "bevacizumab 0.25 mg/ml", "protocol": "Recombinant TGF-β2 was purchased from PeproTech Korea (Korea). ARPE-19 cells were treated with the recombinant TGF-β2 at 10 ng/ml. Recombinant EGF and FGF-2 were purchased from Invitrogen (USA). ARPE-19 cells were treated with 1 mM of EGTA, 10 ng/ml of EGF, and 20 ng/ml of FGF-2.\nUse of an anti-VEGF drug that inhibits neovascularization is a widely used method for treating wet age-related macular degeneration. However, this method has a side effect of causing morphological and functional changes in RPE cells. […] The specific experimental process is shown in Example 2, and this experimental process is schematically illustrated in FIG. 11a. The experimental results are illustrated in FIGS. 11b to 11d."}, "ARPE-19 cells [5]": {"test_system": "ARPE-19 cells", "test": "Induction of fibrotic deformation of ARPE-19 cells by TGF-β", "protocol": "The mature ARPE-19 cells form a cobblestone-like monolayer and express marker proteins specific for epithelial cells. The cultured ARPE-19 cells were treated with TGF-β at 5 ng/ml or 10 ng/ml for 2 days (FIG. 1a). The results are illustrated in FIGS. 1b to 1d."}, "[6]": {"conditions": "TGF-β 5 or 10 ng/ml, 2 days, FIG. 1c"}}}
{"molecule": "ranibizumab: anti-VEGF monoclonal antibody fragment (Fab) sold under the brand name LUCENTIS", "values": [{"measurement": "expression of CCN2 on treatment with anti-VEGF drug", "setting": "ARPE-19 cells [1]; FIG. 14b", "result": "increased expression of CCN2"}, {"measurement": "expression of CCN5 on treatment with anti-VEGF drug", "setting": "ARPE-19 cells [1]; FIG. 14b", "result": "decreased expression of CCN5"}]}
{"molecule": "aflibercept: anti-VEGF drug sold under the brand name EYLEA", "values": [{"measurement": "expression of CCN2 on treatment with anti-VEGF drug", "setting": "ARPE-19 cells [1]; FIG. 14b", "result": "increased expression of CCN2"}, {"measurement": "expression of CCN5 on treatment with anti-VEGF drug", "setting": "ARPE-19 cells [1]; FIG. 14b", "result": "decreased expression of CCN5"}]}
{"molecule": "Cc1cccc(-c2nn(C(=S)Nc3ccccc3)cc2-c2ccnc3ccccc23)n1", "note": "[A83-01, reference compound]", "values": [{"measurement": "expression of mesenchymal (α-SMA, vimentin, fibronectin) and epithelial (ZO-1, occludin) marker proteins (Western blotting)", "setting": "ARPE-19 cells [2]", "result": "failed to normalize abnormal changes in expression of mesenchymal marker proteins (α-SMA, vimentin, and fibronectin) and epithelial marker proteins (ZO-1 and occludin)"}, {"measurement": "TGF-β-induced fibrotic deformation (Western blotting), CCN5 compared with A83-01", "setting": "ARPE-19 cells [3]", "result": "inhibited TGF-β-induced fibrotic deformation of ARPE-19 cells"}]}
{"molecule": "bevacizumab: anti-VEGF monoclonal antibody drug sold under the brand name Avastin", "values": [{"measurement": "expression of CCN5 on treatment with anti-VEGF drug", "setting": "ARPE-19 cells [1]; FIG. 14b", "result": "decreased expression of CCN5"}, {"measurement": "morphology of ARPE-19 cells on treatment with bevacizumab", "setting": "ARPE-19 cells [4]; FIG. 11b", "result": "the morphology of the cells changed"}, {"measurement": "expression of CCN5 on treatment with bevacizumab (Western blotting)", "setting": "ARPE-19 cells [4]; FIG. 11c", "result": "the expression of CCN5 is decreased by bevacizumab"}]}
{"molecule": "TGF-β: Recombinant TGF-β2 (PeproTech), trigger for fibrotic deformation of RPE cells (protein, UniProt P61812 303-414, looked up) Transforming growth factor …: ALDAAYCFRNVQDNCCLRPLYIDFKRDLGWKWIHEPKGYNANFCAGACPYLWSSDTQHSRVLSLYNTINPEASASPCCVSQDLEPLTILYYIGKTPKIEQLSNMIVKSCKCS", "values": [{"measurement": "α-SMA, f-actin and tight junction after treatment with TGF-β (immunofluorescence staining)", "setting": "ARPE-19 cells [5]; FIG. 1d", "result": "the expression of α-SMA and f-actin is increased and the formation of tight junction is inhibited"}, {"measurement": "morphology of ARPE-19 cells after treatment with TGF-β", "setting": "ARPE-19 cells [5]; TGF-β 5 or 10 ng/ml, 2 days, FIG. 1b", "result": "acquired a fibroblastic morphology"}, {"measurement": "expression level of CCN5 protein after treatment with TGF-β", "setting": "ARPE-19 cells [5]; [6]", "result": "significantly decreased the expression level of human-derived CCN5 protein"}, {"measurement": "expression of mesenchymal and epithelial marker proteins after treatment with TGF-β", "setting": "ARPE-19 cells [5]; [6]", "result": "the expression of the mesenchymal marker proteins, α-SMA, vimentin, fibronectin, and type I collagen, was increased, whereas the expression of the epithelial marker proteins, ZO-1 and occludin, was significantly decreased"}]}
{"molecule": "CCN5 protein: purified human-derived CCN5 protein, extracellular matrix-related protein of the CCN family, also called WISP-2 (protein, CCN5(except signal peptide, human)) QLCPTPCTCPWPPPRCPLGVPLVLDGCGCCRVCARRLGEPCDQLHVCDASQGLVCQPGAGPGGRGALCLLAEDDSSCEVNGRLYREGETFQPHCSIRCRCEDGGFTCVPLCSEDVRLPSWDCPHPRRVEVLGKCCPEWVCGQGGGLGTQPLPAQGPQFSGLVSSLPPGVPCPEWSTAWGPCSTTCGLGMATRVSNQNRFCRLETQRRLCLSRPCPPSRGRSPQNSAF", "values": [{"measurement": "expression of mesenchymal (α-SMA, vimentin, fibronectin) and epithelial (ZO-1, occludin) marker proteins (Western blotting)", "setting": "ARPE-19 cells [2]", "result": "inhibited increased expression of mesenchymal marker proteins (α-SMA, vimentin, and fibronectin) and restored decreased expression of epithelial marker proteins (ZO-1 and occludin) to a normal level"}, {"measurement": "tight junction (immunofluorescence staining)", "setting": "ARPE-19 cells [2]; TGF-β, FIGS. 6d, 12c, 13c", "result": "restore the tight junction, disrupted by TGF-β, to normal"}, {"measurement": "expression of mesenchymal and epithelial marker proteins (Western blotting)", "setting": "ARPE-19 cells [1]; simultaneous treatment with anti-VEGF drugs", "result": "inhibited increased expression of mesenchymal marker proteins (α-SMA, vimentin, and fibronectin) and decreased expression of epithelial marker proteins (ZO-1 and occludin)"}, {"measurement": "anti-VEGF drug-induced decrease of CCN5 and increase of CCN2 expression, effect of CCN5 protein", "setting": "ARPE-19 cells [1]; simultaneous treatment with anti-VEGF drugs, FIG. 14b", "result": "this phenomenon was inhibited by CCN5 protein"}, {"measurement": "tight junction, expression of α-SMA and formation of f-actin (immunofluorescence staining)", "setting": "ARPE-19 cells [1]; simultaneous treatment with anti-VEGF drugs, FIG. 14c", "result": "inhibited disruption of tight junction, increased expression of α-SMA, and formation of f-actin"}, {"measurement": "TGF-β-induced fibrotic deformation (Western blotting), CCN5 compared with A83-01", "setting": "ARPE-19 cells [3]", "result": "inhibited TGF-β-induced fibrotic deformation of ARPE-19 cells to the same level as A83-01"}]}
